± gives the uncertainty stated by the source.
Experiment: protein stability index of a GFP-peptide fusion (yeast GPS) (PSI 1-4); higher = more stable; sorted into four equal gates, so the index is relative within each strain
In short: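 For each peptide, the protein stability index sums the read frequency in every gate after multiplying it by the gate number. Read frequencies came from plasmids that were PCR-amplified from each gate and Illumina-sequenced, with reads assigned to strains by barcodes. The gates were four equal bins of GFP/Cherry fluorescence ratio applied to mid-log yeast in leucine-free medium carrying a pooled library of tiled 17-residue yeast protein peptides fused downstream of GFP on a Cherry-expressing plasmid.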

**Q.** For KTERVEDQKVVDKALLA [RPL6B], which protein stability index (doa10∆) is on record?
**A.** 1.52 ± 0.17

**Q.** What about the protein stability index (pdr5∆) of the same sequence?
**A.** 1.43 ± 0.089

**Q.** What about the protein stability index (san1∆) of the same sequence?
**A.** 1.38 ± 0.15

**Q.** And the protein stability index (ubr1∆)?
**A.** 1.19 ± 0.13

**Q.** Which protein stability index (doa10∆) does the source give for NVVVKWQGKPVFIRHRT [RIP1] here?
**A.** 3.35 ± 0.25

**Q.** And the protein stability index (san1∆)?
**A.** 3.41 ± 0.07

**Q.** What about the protein stability index (ubr1∆) of the same sequence?
**A.** 2.88 ± 0.27

**Q.** What does the source list for LFVGTDRQLHEISTSKK [RPN14]?
**A.** protein stability index (doa10∆): 2.91 ± 0.07; protein stability index (pdr5∆): 2.91 ± 0.076; protein stability index (san1∆): 2.9 ± 0.092; protein stability index (ubr1∆): 2.7 ± 0.092

**Q.** With CCYFIEWKSNHKKKRSN [SRB8] as the sequence, how does the protein stability index (doa10∆) read?
**A.** 1.81 ± 0.048

**Q.** And the protein stability index (pdr5∆)?
**A.** 2.08 ± 0.054

**Q.** What about the protein stability index (san1∆) of the same sequence?
**A.** 2.1 ± 0.073

**Q.** And the protein stability index (ubr1∆)?
**A.** 1.92 ± 0.048

**Q.** Which protein stability index (doa10∆) does the source give for HQPITSEQKMKEDADLK [SIR4] here?
**A.** 2.88 ± 0.058

**Q.** What about the protein stability index (pdr5∆) of the same sequence?
**A.** 3.36 ± 0.1

**Q.** What about the protein stability index (san1∆) of the same sequence?
**A.** 3.42 ± 0.063

**Q.** What about the protein stability index (ubr1∆) of the same sequence?
**A.** 3.26 ± 0.073

**Q.** Which protein stability index (doa10∆) does the source give for KRTICKKCHRLLWTPKK [RPR2] here?
**A.** 2.42 ± 0.051

**Q.** And the protein stability index (pdr5∆)?
**A.** 2.45 ± 0.05

**Q.** And the protein stability index (san1∆)?
**A.** 2.81 ± 0.048

**Q.** What about the protein stability index (ubr1∆) of the same sequence?
**A.** 2.26 ± 0.037

**Q.** With AALERLKIFEGIPPPYD [RPL16B] as the sequence, how does the protein stability index (doa10∆) read?
**A.** 1.62 ± 0.12

**Q.** What about the protein stability index (pdr5∆) of the same sequence?
**A.** 2.52 ± 0.089

**Q.** And the protein stability index (san1∆)?
**A.** 1.34 ± 0.23

**Q.** And the protein stability index (ubr1∆)?
**A.** 1.27 ± 0.064

**Q.** What does the source list for MLQISDDNEMTRDDLLT [RRI2]?
**A.** protein stability index (doa10∆): 2.93 ± 0.1; protein stability index (pdr5∆): 3.27 ± 0.1; protein stability index (san1∆): 3.17 ± 0.038; protein stability index (ubr1∆): 3.1 ± 0.056

**Q.** With PLSGLLFKNYRFNFISK [YMR129W/POM152] as the sequence, how does the protein stability index (doa10∆) read?
**A.** 2.85 ± 0.11

**Q.** What about the protein stability index (pdr5∆) of the same sequence?
**A.** 2.17 ± 0.07

**Q.** What about the protein stability index (san1∆) of the same sequence?
**A.** 1.73 ± 0.098

**Q.** And the protein stability index (ubr1∆)?
**A.** 2.25 ± 0.094

**Q.** Which protein stability index (doa10∆) does the source give for AGDLRALDTVTNVLNFI [FAS1] here?
**A.** 3.04 ± 0.1

**Q.** What about the protein stability index (pdr5∆) of the same sequence?
**A.** 3.22 ± 0.14

**Q.** What about the protein stability index (san1∆) of the same sequence?
**A.** 2.95 ± 0.11

**Q.** What about the protein stability index (ubr1∆) of the same sequence?
**A.** 2.54 ± 0.24

**Q.** Which protein stability index (doa10∆) does the source give for KCKEVGITAVHVKIRAT [RPS14B] here?
**A.** 2.39 ± 0.063

**Q.** And the protein stability index (pdr5∆)?
**A.** 1.64 ± 0.051

**Q.** And the protein stability index (san1∆)?
**A.** 1.7 ± 0.1

**Q.** And the protein stability index (ubr1∆)?
**A.** 2.19 ± 0.043

**Q.** For PTDQNNQSNLNGGNNTQ [SNF2], which protein stability index (doa10∆) is on record?
**A.** 2.46 ± 0.083

**Q.** What about the protein stability index (pdr5∆) of the same sequence?
**A.** 3.03 ± 0.072

**Q.** What about the protein stability index (san1∆) of the same sequence?
**A.** 3.13 ± 0.079

**Q.** What about the protein stability index (ubr1∆) of the same sequence?
**A.** 3.01 ± 0.063

**Q.** For DLALPPPPPPPPGYEIE [PRP8], which protein stability index (doa10∆) is on record?
**A.** 3.08 ± 0.088

**Q.** What about the protein stability index (pdr5∆) of the same sequence?
**A.** 2.98 ± 0.11

**Q.** What about the protein stability index (san1∆) of the same sequence?
**A.** 2.54 ± 0.14

**Q.** What about the protein stability index (ubr1∆) of the same sequence?
**A.** 2.95 ± 0.073

**Q.** For GLDATKLYVSHIQVNQA [RPL17A], which protein stability index (doa10∆) is on record?
**A.** 2.5 ± 0.096

**Q.** What about the protein stability index (pdr5∆) of the same sequence?
**A.** 2.99 ± 0.063

**Q.** What about the protein stability index (san1∆) of the same sequence?
**A.** 3 ± 0.043

**Q.** What about the protein stability index (ubr1∆) of the same sequence?
**A.** 3.05 ± 0.05

**Q.** Which protein stability index (doa10∆) does the source give for APIADDNHSGDATANAT [DSN1] here?
**A.** 3.15 ± 0.1

**Q.** What about the protein stability index (pdr5∆) of the same sequence?
**A.** 3.08 ± 0.071

**Q.** And the protein stability index (san1∆)?
**A.** 3.27 ± 0.083

**Q.** And the protein stability index (ubr1∆)?
**A.** 3.38 ± 0.076

**Q.** With LSNCLANARDFGEWAGM [BRR2] as the sequence, how does the protein stability index (doa10∆) read?
**A.** 2.35 ± 0.089

**Q.** What about the protein stability index (pdr5∆) of the same sequence?
**A.** 2.41 ± 0.095

**Q.** And the protein stability index (san1∆)?
**A.** 2.28 ± 0.17

**Q.** What about the protein stability index (ubr1∆) of the same sequence?
**A.** 2.45 ± 0.07

**Q.** With LSRYVKWPEYVRLQRQK [RPL8B] as the sequence, how does the protein stability index (pdr5∆) read?
**A.** 2.71 ± 0.24

**Q.** Which protein stability index (doa10∆) does the source give for SAEDEENIIQRLQAANS [CDC53] here?
**A.** 3.15 ± 0.081

**Q.** What about the protein stability index (pdr5∆) of the same sequence?
**A.** 3.4 ± 0.066

**Q.** What about the protein stability index (san1∆) of the same sequence?
**A.** 3.15 ± 0.048

**Q.** What about the protein stability index (ubr1∆) of the same sequence?
**A.** 3.02 ± 0.065

**Q.** Which results are given for FIRDELDENKWYKFNDD [UBP6]?
**A.** protein stability index (doa10∆): 1.86 ± 0.063; protein stability index (pdr5∆): 2.15 ± 0.043; protein stability index (san1∆): 1.94 ± 0.096; protein stability index (ubr1∆): 1.97 ± 0.062

**Q.** Which protein stability index (doa10∆) does the source give for VNDFSDITSDQLLQRLN [SMC3] here?
**A.** 2.56 ± 0.055

**Q.** And the protein stability index (pdr5∆)?
**A.** 2.24 ± 0.053

**Q.** What about the protein stability index (san1∆) of the same sequence?
**A.** 2.41 ± 0.083

**Q.** And the protein stability index (ubr1∆)?
**A.** 2.6 ± 0.04

**Q.** Which protein stability index (doa10∆) does the source give for QSQPIANQSATSTPPPP [SNF5] here?
**A.** 2.82 ± 0.044

**Q.** What about the protein stability index (pdr5∆) of the same sequence?
**A.** 2.66 ± 0.037

**Q.** What about the protein stability index (san1∆) of the same sequence?
**A.** 2.61 ± 0.038

**Q.** And the protein stability index (ubr1∆)?
**A.** 2.63 ± 0.034

**Q.** For PRLDTSKEFSAYVSGLF [YJR042W/NUP85], which protein stability index (doa10∆) is on record?
**A.** 2.33 ± 0.13

**Q.** What about the protein stability index (pdr5∆) of the same sequence?
**A.** 2.08 ± 0.082

**Q.** And the protein stability index (san1∆)?
**A.** 2.05 ± 0.13

**Q.** What about the protein stability index (ubr1∆) of the same sequence?
**A.** 3.12 ± 0.13

**Q.** For EALSEKPTREPTPSVKT [RPC53], which protein stability index (doa10∆) is on record?
**A.** 3.11 ± 0.099

**Q.** And the protein stability index (pdr5∆)?
**A.** 3.07 ± 0.085

**Q.** And the protein stability index (san1∆)?
**A.** 3.2 ± 0.063

**Q.** And the protein stability index (ubr1∆)?
**A.** 3.25 ± 0.089

**Q.** What does the source list for PDTAIDSQMDEASGTPD [GRR1]?
**A.** protein stability index (doa10∆): 2.97 ± 0.062; protein stability index (pdr5∆): 3.06 ± 0.071; protein stability index (san1∆): 2.89 ± 0.064; protein stability index (ubr1∆): 3 ± 0.055

**Q.** Which results are given for EKLSSEIENLDKELRKT [YIL149C/MLP2]?
**A.** protein stability index (doa10∆): 3.12 ± 0.11; protein stability index (pdr5∆): 3.21 ± 0.12; protein stability index (san1∆): 3.12 ± 0.069; protein stability index (ubr1∆): 3 ± 0.11

**Q.** Which protein stability index (doa10∆) does the source give for LGTTEGDIKVLDSNFNL [RPN14] here?
**A.** 3.02 ± 0.12

**Q.** What about the protein stability index (pdr5∆) of the same sequence?
**A.** 3.11 ± 0.098

**Q.** What about the protein stability index (san1∆) of the same sequence?
**A.** 3.03 ± 0.078

**Q.** What about the protein stability index (ubr1∆) of the same sequence?
**A.** 3.26 ± 0.081

— the supplement of paper PMC9732359
